Assay results from IntAct's records for PubMed 16330715.

B1: Neutrophil cytosol factor 1 (Homo sapiens), P14598 (parent)
chain: MGDTFIRHIALLGFEKRFVPSQHYVYMFLVKWQDLSEKVVYRRFTEIYEFHKTLKEMFPIEAGAINPENRIIPHLPAPKWFDGQRAAENRQGTLTEYCSTLMSLPTKISRCPHLLDFFKVRPDDLKLPTDNQTKKPETYLMPKDGKSTATDITGPIILQTYRAIANYEKTSGSEMALSTGDVVEVVEKSESGWWFCQMKAKRGWIPASFLEPLDSPDETEDPEPNYAGEPYVAIKAYTAVEGDEVSLLEGEAVEVIHKLLDGWWVIRKDDVTGYFPSMYLQKSGQDVSQAQRQIKRGAPPRRSSIRNAHSIHQRSRKRLSQDAYRRNSVRFLQQRRRQARPGPQSPGSPLEEERQTQRSKPQPAVPPRPSADLILNRCSESTKRKLASAV

Variants of: B1
Conditions: with fak2_human PTK2B

Variant	effect of a mutation on the interaction
W193R	disrupting interaction strength
S303D;S304D;S328D	increasing interaction strength
